The values below come from publication PMC4942678, “A Salmonella Toxin Promotes Persister Formation through Acetylation of tRNA” (Molecular Cell, 2016).

Positions count from the first letter of the chain named. In names and notes the source's numbering stands.

Data set [1] deals with the molecule itself. Description: crystal structure; T8^Y140F with Ac-CoA bound, 1.7 Å, space group P2_(1); a dimer in the asymmetric unit.
Data set [2] deals with the molecule itself. The experiment in a line: SEC-MALS; size-exclusion chromatography with multi-angle laser light scattering (SEC-MALLS), in solution. (In general: Size exclusion chromatography separates by hydrodynamic size, large species first.)

B1: TacT^Y140F (tRNA-acetylating toxin, Y140F mutant) (enzyme)
chain: MGRVTAPEPLSAFHQVAEFVSGEAVLDDWLKQKGLKNQALGAARTFVVCKKDTKQVAGFYSLATGSVNHTEATGNLRRNMPDPIPVIILARLAVDLSFHGKGLGADLLHDAVLRCYRVAENIGVRAIMVHALTEEAKNFFIHHGFKSSQTQQRTLFLRLPQ
notes: also called T8^Y140F; source: purified; produced in the absence of its antitoxin A8 (E. coli expression strain BL21)
Regarding B1, in data set [1], the binding result was “binds”.

B2: TacT (tRNA-acetylating toxin), wild type (enzyme)
chain: B1 chain with F140Y
notes: also called T8; the toxin
Take B2: the “stoichiometry N” value in data set [2] was 2.

What is called stoichiometry N is the number of molecules, sites or subunits per partner or assembly.
